Experimental data: US20230060388A1 (SHANGHAI HENLIUS BIOTECH, published 2023)
Like-named read-outs stand apart in the source and are kept apart here. Each block holds one binder with its values, some of them ahead of it.

Assays:
[1] = target: T1, human TIGIT expressed on cells (stably transfected Jurkat cells) (human, UniProt Q495A1 22-244); assay: flow cytometry on h-TIGIT transfected Jurkat cells, anti-human IgG Fc Alexa Fluor 488
T1 construct: Also used here for TIGIT on primary T cells in the MLR; also called h-TIGIT; T cell immunoreceptor with Ig and ITIM domains
T1 sequence: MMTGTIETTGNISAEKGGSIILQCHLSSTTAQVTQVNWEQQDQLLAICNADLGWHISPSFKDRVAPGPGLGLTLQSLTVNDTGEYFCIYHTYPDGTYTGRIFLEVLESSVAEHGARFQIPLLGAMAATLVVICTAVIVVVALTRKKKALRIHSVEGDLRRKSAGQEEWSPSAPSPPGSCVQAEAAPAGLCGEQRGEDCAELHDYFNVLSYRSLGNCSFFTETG
Description: FIGS. 1A-1C depict whole cell binding of representative VHH bivalent antibodies to human TIGIT determined by flowcytometry assays. […] Y axis represents Mean Fluorescence Intensity of AlexaFlour 488. X axis represents antibody concentrations in nanomolar. 2B7, 1G1, 1C12, 3G6, 2B10, 3G7, 3G10, 13H11, and 15A5 are VHH clones of anti-human TIGIT. FIG. 1C is a schematic of the structure of a TIGIT VHH bivalent antibody.
Binding affinities of the bivalent clones to human TIGIT transfected Jurkat cells were confirmed by flowcytometry assays. Jurkat cells stably expressing human TIGIT and NFAT reporter gene were established. Specifically, Jurkat cells were transfected with human TIGIT expression vector by electroporation, and cells stably expressing human TIGIT were selected by 1 μg/ml puromycin during cell culture. Representative antibody clones were incubated at different concentrations with h-TIGIT stably expressing Jurkat cells (0.2×10^6/ml) in 100 μl/well in 96-well plate in FACS buffer (PBS with 1.5% FBS) for 30 min. After washing, Alexaflour 488 conjugated anti-human IgG Fc secondary antibody (Alexa Fluor® 488 AffiniPure Goat Anti-Human IgG, Fcγ fragment specific, Jackson labs, 1:500 dilution) was added and incubated for 30 min. After washing, mean fluorescence intensity was measured using CytoFlex (Beckman Coulter) by gating live cell population. Binding affinity was calculated using GraphPad Prism.

[2] = target: T1, human TIGIT expressed on cells (stably …); assay: as above; remark: listed apart in the source
Description: FIGS. 3A and 3B depict whole cell binding of humanized 1C12 and 1G1 clones to human TIGIT determined by flowcytometry assays. 1C12-chimeric is an antibody with Llama VHH sequence of 1C12 clone and human IgG1 CH2 and CH3 domains, 1C12 (F-EREF), 1C12 (F-EREW) and 1C12 (F-GLEW) are humanized versions of 1C12 clone with difference of mutations in Framework 2. 1G1-chimeric is an antibody with Llama VHH sequence of 1G1 clone and human IgG1 CH2 and CH3 domains. 1G1 (F-G-ERES), 1G1 (F-A-ERES), 1G1 (F-A-EREW) and 1G1 (F-A-GLEW) are four different versions of humanized 1G1 clones with different mutations in framework 2. Y axis is values of Mean Fluorescence Intensity of AlexaFlour 488. X axis is values of antibody concentrations in nanomolar.
The binding affinities of the humanized bivalent antibodies to human TIGIT were determined by whole cell binding to h-TIGIT stably expressed on Jurkat cells. Briefly, antibodies were incubated with h-TIGIT transfected Jurkat cells (0.2×10⁶/well in 100 μl) for 30 min in FACS buffer. The cells were washed once, then incubated with anti-human IgG Fc AlexaFluor488 (1:500). Mean fluorescence intensity was determined by CytoFlex, and binding affinities of antibodies to h-TIGIT were calculated using non-liner regression by GraphPad Prism 8.0 as shown in FIG. 3A.

[3] = target: T2, recombinant human TIGIT extracellular domain (ECD) (human, UniProt Q495A1 22-138); assay: ELISA on h-TIGIT ECD with VHH samples heated for 60 min at 25 to 70 °C
T2 construct: also called h-TIGIT ECD; recombinant human TIGIT ECD
T2 sequence: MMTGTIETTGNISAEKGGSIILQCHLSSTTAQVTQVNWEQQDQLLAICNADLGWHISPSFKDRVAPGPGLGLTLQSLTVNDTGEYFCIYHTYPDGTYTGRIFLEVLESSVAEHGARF
Protocol: (§1) FIGS. 6A and 6B depict thermostability tested for representative clones. The VHH antibody samples were heated from 25 to 70° C. for 60 min. Binding of heated samples to human TIGIT was examined using ELISA or whole cell binding. […] Y axis represents OD450 obtained from the ELISA assay. X axis represents temperature for the treatment. […] Y axis represents percentage of binding to h-TIGIT. X axis represents temperature for the treatment.
(§2) The thermostability of 12 representative clones was tested by heat treatment at 25 to 70° C. for 60 min, then the binding of the treated samples to human TIGIT was examined using ELISA and whole cell binding flow cytometry assays, the results of which are shown in FIGS. 6A and 6B. […] Bivalent 2A3 antibody (2A3-Fc) was constructed using human IgG1 CH2 and CH3 domains. The antibody was expressed in ExpiCHO cells and purified by protein A column. Epitope of 2A3-Fc binding to human TIGIT was studied using Octet binding assay in comparison with anti-TIGIT reference antibodies Reference Ab 1 and References Ab 2 (a reference anti-human-TIGIT antibody having the same amino acid sequences of Tiragolumab, which was synthesized in-house based on the disclosed sequences in U.S. 2017/0088613 A1). As shown in FIGS. 7A-7C, 2A3 clone bound to a different epitope compared to Reference Ab 1 and Reference Ab 2.

[4] = target: T1, human TIGIT expressed on cells (stably …); assay: flow cytometry on h-TIGIT Jurkat cells (% binding) with VHH samples heated for 60 min at 25 to 70 °C
Protocol: as §1, §2

[5] = target: T1, human TIGIT expressed on cells (stably …); assay: whole cell binding, flow cytometry
[6] = target: T3, recombinant ECD of human FcγRIIB (human, UniProt P31994 43-217); assay: Octet (ForteBio), receptor ECD loaded on the sensor, antibody at 5 concentrations (not given) [h-FcγRIIB binding]
T3 construct: extracellular domain
T3 sequence (looked up): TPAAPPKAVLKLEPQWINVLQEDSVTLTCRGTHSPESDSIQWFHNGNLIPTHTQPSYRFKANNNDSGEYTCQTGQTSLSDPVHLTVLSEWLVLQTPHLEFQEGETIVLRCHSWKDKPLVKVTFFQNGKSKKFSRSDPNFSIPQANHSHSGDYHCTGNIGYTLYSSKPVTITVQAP
Description: (§3) FIG. 12 depicts binding of 2A3-LT-Fc wild type (wt) and Fc mutations (DLE and VLPLL) to human FcγRIIIA, human FcγRIIB and mouse FcγRIV determined using Octet binding assay. Sensors were loaded with recombinant proteins of ECDs of FcγRIIIA, human FcγRIIB and mouse FcγRIV, association and dissociation of 2A3-LT-Fc wt, DLE or VLPLL mutants at 5 different concentrations were detected using ForteBio. Y axis represents association, dissociation & Rmax. X axis represents time in second. Both DLE and VLPLL mutants had enhanced binding affinity to human FcγRIIIA compared to that of wild type, DLE mutant also had enhanced binding affinity to human FcγRIIB, however VLPLL mutant reduced binding affinity to human FcγRIIB All versions had similar affinity to mouse FcγRIV.

[7] = target: T4, recombinant ECD of mouse FcγRIV (mouse, UniProt A0A0B4J1G0 21-203); assay: Octet (ForteBio), receptor ECD loaded on the sensor, antibody at 5 concentrations (not given) [m- FcγRIV binding]
T4 sequence: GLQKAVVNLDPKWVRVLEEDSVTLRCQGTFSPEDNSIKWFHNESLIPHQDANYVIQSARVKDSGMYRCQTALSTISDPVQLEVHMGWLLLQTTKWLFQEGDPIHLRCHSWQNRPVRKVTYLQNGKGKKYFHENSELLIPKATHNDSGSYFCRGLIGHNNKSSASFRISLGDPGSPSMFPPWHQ
Description: as §3

[8] = target: human FcγRIIIA expressed on transfected Jurkat cells (human, UniProt P08637 17-254); assay: cell-based or functional assay
Chain of human FcγRIIIA expressed on transfected Jurkat cells (P08637 17-254): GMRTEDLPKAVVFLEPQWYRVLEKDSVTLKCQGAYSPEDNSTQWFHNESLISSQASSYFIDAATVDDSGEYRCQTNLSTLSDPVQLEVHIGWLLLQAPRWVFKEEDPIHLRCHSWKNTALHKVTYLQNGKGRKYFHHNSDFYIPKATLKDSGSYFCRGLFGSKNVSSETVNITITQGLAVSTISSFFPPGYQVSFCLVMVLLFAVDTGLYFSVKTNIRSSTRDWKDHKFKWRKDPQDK

[9] = target: T1, human TIGIT expressed on cells (stably …); assay: cell-based or functional assay

B2: 1A8 VHH (VHH)
VHH: QVQLVESGGGVVQPGRSLRLSCAASGPSFSSYPMGWFRQAPGKERESVAAISSRGRFTYYADSVKGRFTISRDNSKNTLYLQMNSLRAEDTAVYYCAARDSGSGYYSRAQWYDYWGQGTLVTVSS
binding result [3]: binds | binding result [4]: binds

B4: 7F6 VHH (VHH)
VHH: QVQLVESGGGVVQPGRSLRLSCAASGPMFSSYPMGWFRQAPGKERESVAAISSDPRFTYYADSVKGRFTISRDNSKNTLYLQMNSLRAEDTAVYYCAARDSGSGYYSRAQWYDYWGQGTLVTVSS
binding result [3]: binds | binding result [4]: binds

B5: 6F12 VHH (VHH)
VHH: QVQLVESGGGVVQPGRSLRLSCAASGPSFTSYPMGWFRQAPGKERESVAAISSDGRFKYYADSVKGRFTISRDNSKNTLYLQMNSLRAEDTAVYYCAAEDSGSGYYSRAQWYDYWGQGTLVTVSS
binding result [3]: binds | binding result [4]: binds

B6: 2A3 ML (hotspot modified 2A3) (VHH)
VHH: QVQLVESGGGVVQPGRSLRLSCAASGGSFSSYPMGWFRQAPGKERESVAAISSDLRFTYYADSVKGRFTISRDNSKNTLYLQMNSLRAEDTAVYYCAARDSGVGYYSRAQWYDYWGQGTLVTVSS
binding result [5]: binds

B7: 2A3 ML_DE (hotspot modified 2A3) (VHH)
VHH: QVQLVESGGGVVQPGRSLRLSCAASGGSFSSYPMGWFRQAPGKERESVAAISSDLRFTYYADSVKGRFTISRDNSKNTLYLQMNSLRAEDTAVYYCAARESGVGYYSRAQWYDYWGQGTLVTVSS
binding result [5]: binds

Next, values leading:

EC50 (read off the curve) [1]: ~0.09 nM | EC50 (read off the curve) [2]: ~0.07 nM
B1: 1G1 bivalent VHH antibody (1G1-chimeric) (Fc fusion)
chain: QVQLVESGGGLVQAGDSLRLSCVASGPSFSSYPMGWFRQGPGKERESVAAISSDGRFTYYAASVKGRFTISKDNAKSAAFLQMNSLKPEDTAVYYCAARDSGSGYYSRAQWYDYWGQGTLVTVSS
notes: Llama VHH of 1G1 with human IgG1 CH2 and CH3; also called chimeric parental clone; not shown: human IgG1 CH2 and CH3 domains

binding result [5]: binds
B3: 2A3 MI (hotspot modified 2A3) (VHH)
VHH: QVQLVESGGGVVQPGRSLRLSCAASGGSFSSYPMGWFRQAPGKERESVAAISSDIRFTYYADSVKGRFTISRDNSKNTLYLQMNSLRAEDTAVYYCAARDSGVGYYSRAQWYDYWGQGTLVTVSS

binding result [6]: binds | binding result [7]: binds
B8: 2A3-LT-Fc VLPLL (Fc mutations L235V, F243L, R292P, Y300L, P396L) (Fc fusion)
chain: QVQLVESGGGVVQPGRSLRLSCAASGGSFSSYPMGWFRQAPGKERESVAAISSDLRFTYYADSVKGRFTISRDNSKNTLYLQMNSLRAEDTAVYYCAARTSGVGYYSRAQWYDYWGQGTLVTVSSEPKSCDKTHTCPPCPAPELVGGPSVFLLPPKPKDTLMISRTPEVTCVVVDVSHEDPEVKFNWYVDGVEVHNAKTKPPEEQYNSTLRVVSVLTVLHQDWLNGKEYKCKVSNKALPAPIEKTISKAKGQPREPQVYTLPPSREEMTKNQVSLTCLVKGFYPSDIAVEWESNGQPENNYKTTPLVLDSDGSFFLYSKLTVDKSRWQQGNVFSCSVMHEALHNHYTQKSLSLSPGK
notes: also called VLPLL mutant; VPVLL (as misprinted)

EC50 (nM), FcγRIIIA-mediated NFAT reporter, Average [8]: 0.024 nM | EC50 (nM), FcγRIIIA-mediated NFAT reporter, Exp 1 [8]: 0.027 nM | EC50 (nM), FcγRIIIA-mediated NFAT reporter, Exp 2 [8]: 0.0295 nM | EC50 (nM), FcγRIIIA-mediated NFAT reporter, Exp 3 [8]: 0.018 nM | EC50 (nM), FcγRIIIA-mediated NFAT reporter, Exp 4 [8]: 0.02 nM | binding result [6]: binds | EC50 (nM), TIGIT blockade NFAT reporter, Average [9]: 0.97 nM | EC50 (nM), TIGIT blockade NFAT reporter, Exp 1 [9]: 0.67 nM | EC50 (nM), TIGIT blockade NFAT reporter, Exp 2 [9]: 0.92 nM | EC50 (nM), TIGIT blockade NFAT reporter, Exp 3 [9]: 1.32 nM | binding result [7]: binds
B9: 2A3-LT-Fc-DLE (Fc mutations S239D, A330L, I332E) (Fc fusion)
chain: QVQLVESGGGVVQPGRSLRLSCAASGGSFSSYPMGWFRQAPGKERESVAAISSDLRFTYYADSVKGRFTISRDNSKNTLYLQMNSLRAEDTAVYYCAARTSGVGYYSRAQWYDYWGQGTLVTVSSEPKSCDKTHTCPPCPAPELLGGPDVFLFPPKPKDTLMISRTPEVTCVVVDVSHEDPEVKFNWYVDGVEVHNAKTKPREEQYNSTYRVVSVLTVLHQDWLNGKEYKCKVSNKALPLPEEKTISKAKGQPREPQVYTLPPSREEMTKNQVSLTCLVKGFYPSDIAVEWESNGQPENNYKTTPPVLDSDGSFFLYSKLTVDKSRWQQGNVFSCSVMHEALHNHYTQKSLSLSPGK
notes: I332E is printed as 1332E; also called DLE mutant
